Here are results for one substance from article doi:10.1101/2024.07.12.603331.

In this experiment the target is HAstV8 spike protein VP25 (residues S484 to R708) (human astrovirus 8 (HAstV8)). Kind of experiment: BLI. (In general: BLI is a label-free optical method that tracks binding on a fibre tip over time.)

One may read the Kd as the constant that tells how readily two partners part at equilibrium. Usually half-life stands for the time in which the quantity being followed falls by half. The low end stands for rapid decline, the high end for slow decline.

HAstV8 spike protein VP25 (residues S484 to R708) (human astrovirus 8 (HAstV8)), sequence (Q9IFX1 424-648 limits assumed): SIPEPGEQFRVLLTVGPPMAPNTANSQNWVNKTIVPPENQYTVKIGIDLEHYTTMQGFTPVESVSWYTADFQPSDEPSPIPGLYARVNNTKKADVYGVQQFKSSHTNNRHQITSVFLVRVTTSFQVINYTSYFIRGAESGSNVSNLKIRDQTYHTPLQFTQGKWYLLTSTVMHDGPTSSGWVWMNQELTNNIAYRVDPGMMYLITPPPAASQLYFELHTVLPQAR
neonatal Fc receptor (FcRn), recombinant ectodomains, sequence (P55899 24-297): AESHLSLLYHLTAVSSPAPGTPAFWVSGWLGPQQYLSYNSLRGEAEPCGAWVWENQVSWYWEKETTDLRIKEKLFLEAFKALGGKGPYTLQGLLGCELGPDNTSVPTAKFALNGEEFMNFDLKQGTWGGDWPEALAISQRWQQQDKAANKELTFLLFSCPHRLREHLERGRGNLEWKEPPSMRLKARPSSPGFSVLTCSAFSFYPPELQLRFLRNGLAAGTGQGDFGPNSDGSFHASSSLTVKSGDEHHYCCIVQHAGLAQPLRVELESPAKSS
neonatal Fc receptor (FcRn), recombinant ectodomains, sequence (P61769 21-119): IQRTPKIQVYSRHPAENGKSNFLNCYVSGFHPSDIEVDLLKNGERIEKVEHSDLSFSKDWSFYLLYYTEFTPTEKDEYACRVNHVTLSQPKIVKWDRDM

“neonatal Fc receptor (FcRn), recombinant ectodomains (from UniProt P55899;P61769) (complex)” showed a Kd of 623 nM and a half-life of 4.68 s.
